US20210214414A1 (Pfizer, published 2021)

Columns and labels:
Mouse SLIT2-N = target: T1, Mouse SLIT2-N (mouse, UniProt Q9R1B9 26-1113, limits assumed); assay: HTRF competition: d2-labelled mouse SLIT2-N binding to human ROBO2 on HEK293 cells; geometric mean, n=3
T1 construct: domain: SLIT2-N; d2-labelled in the HTRF assay
T1 sequence (looked up): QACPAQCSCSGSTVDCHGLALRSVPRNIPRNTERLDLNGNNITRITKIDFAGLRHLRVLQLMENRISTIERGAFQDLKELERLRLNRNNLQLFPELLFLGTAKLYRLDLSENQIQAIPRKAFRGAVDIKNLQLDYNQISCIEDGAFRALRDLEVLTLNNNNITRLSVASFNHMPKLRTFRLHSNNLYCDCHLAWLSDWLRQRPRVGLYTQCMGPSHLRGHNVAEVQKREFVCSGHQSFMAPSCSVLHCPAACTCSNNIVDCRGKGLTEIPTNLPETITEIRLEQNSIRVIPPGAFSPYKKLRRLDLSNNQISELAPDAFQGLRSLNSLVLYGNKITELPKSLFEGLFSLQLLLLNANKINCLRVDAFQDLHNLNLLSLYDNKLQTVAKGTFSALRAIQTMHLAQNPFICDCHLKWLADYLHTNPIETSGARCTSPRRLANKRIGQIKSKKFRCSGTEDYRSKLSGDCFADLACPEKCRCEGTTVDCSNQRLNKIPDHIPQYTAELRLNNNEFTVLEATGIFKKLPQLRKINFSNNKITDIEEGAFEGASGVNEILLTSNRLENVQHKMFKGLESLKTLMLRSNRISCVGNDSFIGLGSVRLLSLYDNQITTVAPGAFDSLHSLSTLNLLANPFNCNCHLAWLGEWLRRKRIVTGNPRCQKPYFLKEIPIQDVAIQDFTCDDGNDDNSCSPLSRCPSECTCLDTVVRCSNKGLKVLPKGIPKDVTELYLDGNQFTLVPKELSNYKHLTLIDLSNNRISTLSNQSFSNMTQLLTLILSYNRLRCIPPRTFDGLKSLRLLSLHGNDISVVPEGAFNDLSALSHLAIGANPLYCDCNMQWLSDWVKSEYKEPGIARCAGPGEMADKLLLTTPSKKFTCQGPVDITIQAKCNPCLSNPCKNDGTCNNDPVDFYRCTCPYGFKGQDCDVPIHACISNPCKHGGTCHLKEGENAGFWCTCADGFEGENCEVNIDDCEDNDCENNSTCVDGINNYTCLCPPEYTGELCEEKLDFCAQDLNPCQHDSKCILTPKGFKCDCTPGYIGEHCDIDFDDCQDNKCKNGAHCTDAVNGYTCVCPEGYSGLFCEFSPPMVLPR
Experimental: (§1) After incubation, fluorescence at 665 nm and 620 nm was measured on an Envision multilabel plate reader. The HTRF Ratio was calculated as follows: fluorescence at 665 nm/fluorescence at 620 nm×10,000. […] The IC₅₀ for each SLITx-N was determined using an 11-point, 4-fold dilution series with a top concentration of 4000 nM.

[1] = target: T2, Cynomolgus monkey SLIT3-N (cynomolgus monkey, UniProt A0A2K5UAP4 33-1125); assay: HTRF competition: d2-labelled cynomolgus monkey SLIT3-N binding to human ROBO2 on HEK293 cells; geometric mean, n=3
T2 construct: domain: SLIT3-N; d2-labelled in the HTRF assay
T2 sequence: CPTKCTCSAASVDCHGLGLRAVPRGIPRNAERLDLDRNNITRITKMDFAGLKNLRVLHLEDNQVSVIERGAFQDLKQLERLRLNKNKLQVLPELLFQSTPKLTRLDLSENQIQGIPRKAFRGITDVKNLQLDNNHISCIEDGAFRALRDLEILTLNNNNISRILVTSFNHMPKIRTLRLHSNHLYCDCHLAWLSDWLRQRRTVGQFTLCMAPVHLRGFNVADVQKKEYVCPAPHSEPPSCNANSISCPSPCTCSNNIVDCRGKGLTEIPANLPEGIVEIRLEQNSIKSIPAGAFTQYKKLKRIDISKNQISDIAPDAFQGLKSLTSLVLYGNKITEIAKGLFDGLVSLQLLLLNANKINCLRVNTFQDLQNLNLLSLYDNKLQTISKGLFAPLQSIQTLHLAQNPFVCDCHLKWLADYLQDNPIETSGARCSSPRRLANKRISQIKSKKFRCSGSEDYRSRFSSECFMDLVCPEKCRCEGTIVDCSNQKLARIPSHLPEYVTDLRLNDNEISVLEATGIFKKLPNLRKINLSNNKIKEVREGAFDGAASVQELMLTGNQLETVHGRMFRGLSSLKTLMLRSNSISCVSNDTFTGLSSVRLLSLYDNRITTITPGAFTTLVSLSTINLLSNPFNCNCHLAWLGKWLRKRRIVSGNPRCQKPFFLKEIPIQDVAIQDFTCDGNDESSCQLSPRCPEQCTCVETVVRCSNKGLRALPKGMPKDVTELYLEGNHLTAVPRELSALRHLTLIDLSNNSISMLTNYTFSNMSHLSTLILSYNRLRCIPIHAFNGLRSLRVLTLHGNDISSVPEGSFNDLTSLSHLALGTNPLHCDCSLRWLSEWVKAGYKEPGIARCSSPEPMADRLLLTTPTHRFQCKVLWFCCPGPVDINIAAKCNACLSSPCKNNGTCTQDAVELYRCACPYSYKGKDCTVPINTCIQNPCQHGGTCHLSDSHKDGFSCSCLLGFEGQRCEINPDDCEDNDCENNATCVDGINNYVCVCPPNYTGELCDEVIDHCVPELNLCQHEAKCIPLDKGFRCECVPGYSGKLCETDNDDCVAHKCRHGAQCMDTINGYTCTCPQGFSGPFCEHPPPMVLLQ
Experimental: as §1

IC50 (Mouse SLIT2-N): 5.4 nM
IC50 [1]: 3.6 nM
B1: ROBO2-Fc 2.2 (Fc fusion)
chain: SRLRQEDFPPRIVEHPSDVIVSKGEPTTLNCKAEGRPTPTIEWYKDGERVETDKDDPRSHRMLLPSGSLFFLRIVHGRRSKPDEGSYVCVARNYLGEAVSRNASLEVALLRDDFRQNPTDVVVAAGEPAILECQPPRGHPEPTIYWKKDKVRIDDKEERISIRGGKLMISNTRKSDAGMYTCVGTNMVGERDSDPAELTVFERGGSGGSEPKSSDKTHTCPPCPAPEAAGAPSVFLFPPKPKDTLMISRTPEVTCVVVDVSHEDPEVKFNWYVDGVEVHNAKTKPREEQYNSTYRVVSVLTVLHQDWLNGKEYKCKVSNKALPAPIEKTISKAKGQPREPQVYTLPPSREEMTKNQVSLTCLVKGFYPSDIAVEWESNGQPENNYKTTPPVLDSDGSFFLYSKLTVDKSRWQQGNVFSCSVMHEALHNHYTQKSLSLSPG
notes: Labelled with Alexa Fluor 647 in the flow cytometry assay; also called ROBO-Fc 2.2; ROBO2-Fc 2.2-AF647
